Literature values as cited in article PMC8844171 (Clinical Drug Investigation, 2022).
Like-named read-outs stand apart in the source and are kept apart here.

Tested on: patients with distal MCA or ICA occlusion

B1: alteplase: standard thrombolytic treatment for AIS (protein, UniProt P00750 36-562, looked up)
Tissue-type plasminogen …: SYQVICRDEKTQMIYQQHQSWLRPVLRSNRVEYCWCNSGRAQCHSVPVKSCSEPRCFNGGTCQQALYFSDFVCQCPEGFAGKCCEIDTRATCYEDQGISYRGTWSTAESGAECTNWNSSALAQKPYSGRRPDAIRLGLGNHNYCRNPDRDSKPWCYVFKAGKYSSEFCSTPACSEGNSDCYFGNGSAYRGTHSLTESGASCLPWNSMILIGKVYTAQNPSAQALGLGKHNYCRNPDGDAKPWCHVLKNRRLTWEYCDVPSCSTCGLRQYSQPQFRIKGGLFADIASHPWQAAIFAKHRRSPGERFLCGGILISSCWILSAAHCFQERFPPHHLTVILGRTYRVVPGEEEQKFEVEKYIVHKEFDDDTYDNDIALLQLKSDSSRCAQESSVVRTVCLPPADLQLPDWTECELSGYGKHEALSPFYSERLKEAHVRLYPSSRCTSQHLLNRTVTDNMLCAGDTRSGGPQANLHDACQGDSGGPLVCLNDGRMTLVGIISWGLGCGQKDVPGVYTKVTNYLDWIRDNMRP
Recanalization rate (patients with ICA occlusion): < 10% | Recanalization rate (patients with distal MCA occlusion): approximately 40%
